Results from the nanobody polyreactivity screen of Harvey et al. (2022).

Assay: yeast display, Sf9 membrane polyspecificity reagent, FACS + sequencing; frameworks hold sequencing errors
Outline: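 Genes from sorted yeast were amplified by colony PCR, read by MiSeq 2 × 250 sequencing and filtered on CDR length. These cells carried a synthetic nanobody library in Saccharomyces cerevisiae BJ5465 and were sorted by FACS into low and high (top ~1%) gates on anti-HA and streptavidin fluorescence. Polyreactivity is labelled according to the gate of origin.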

QVQLEESGGGLVQAGGSLRLTCAASGIIFRFYAMRCDRQAPGKERELVAVITSRSDSTYYADSVKGRFTISRDYAKNTVYLQMNSVKPEDTAVYYCNARYPWYYRYSTYDYWGQGTQVTVSS
polyreactivity (PSR sort gate): high polyreactivity

QVQLEESGGGLVQAGGSLRLTCAASGRTFSSYTMGWSRQAPGKERELVASITNNGGSTYYADSVKGRFTISRDNAKNTVYLQMNSLKPEDTAVYYCNKDPWYVFHPRGLFLFDYWGQGTQVTVSS
polyreactivity (PSR sort gate): low polyreactivity

QVQLEESGGGLVQAGGSLSLSSAASGSIFRNYAKGWYRQAPGKERELVAAISVRGGSTYYADSVKGRFTISRDNAKNTVYLQMNSLKPEDTAVYYCNARTYYPVYYRDGGYWGQGTQVTVSS
polyreactivity (PSR sort gate): high polyreactivity

QVQLEESGGGLVQAGGSRRLSCAASGITFPGYAMGWYRQAPGKERELVAGITYRGGRTYYADSVKGRFTISRDNAKTTVYLQMTSLNTEATAVYYCNADYWSTGGSYSFDYWGQGTQVTVSS
polyreactivity (PSR sort gate): low polyreactivity

QVQLEESGGGLVQAGGTLRLSCAASGLNFSYNAMGWYRQAPGKERELVAAISYSGGSTYYPDSVKGRFTISRDNAKNTVYLQMNSLKPEDTAVYYCASDAWWLYYGYYYWGQGTQVTLSS
polyreactivity (PSR sort gate): high polyreactivity

QVQLEESGGGLVQAGRSLRLISAASGRMFGWNAMGWYRQAPWKERELVASIRSGGRTNYADSVKGRFTISRDNAKNTVYLQMNSLKPEDTAVYYCAVGPYYQSTQIYDYWGQGTQVTVSS
polyreactivity (PSR sort gate): low polyreactivity

QVQLEESGGGLVQAVGSLRLTCAASGLIFKSNAMGWYRQAPGKERQLVAAITRTGGSTYYADSVKGRFTISRDNAKNTVYLQMNSLKPEDTAVYYCAVLYDRYGRAYYYWGQGTQVTVSS
polyreactivity (PSR sort gate): high polyreactivity

QVQLEESGGGLVQAVRSLRLSCAASGSTFDYYAMRWFRQAPWKEREFVAAISVSGGRTYDADSVKGRFTISRDNAKTTVYLQMNSQKPEDTAVSYCAAVQWYLPSFRYYYRGQGTQVTVSS
polyreactivity (PSR sort gate): high polyreactivity

QVQLEESGGGLVQPGGSLRLSCAASGIIFAYNAMGWNRQAPGKERELVATITDSGGTTSYADSVKGRFTISRDNAKNTVYLQMNRLKQEDTAVYYCAVLPVYWYWRNYVYLSGYDYWGQGTQVNVSS
polyreactivity (PSR sort gate): low polyreactivity

QVQLEESGGRLVQAGARLRLSCAASGPIFHQYAMGWYRHAPGKERELGAAISSGGGSTYYADSVKGRFTISRDNAKNTGYLQMNSLKPEDTAVYYCNVYSVRWARFDFWGQGTQVTVSS
polyreactivity (PSR sort gate): high polyreactivity

QVQLEESGGRLVQAGASLRLSCAASGSIFEDYVMGWYRHAPGKERELVADITSGGTTYYADSVKGRFTISRDYAKNTVYLQMNRLKPEATAVYYCNAYLIVDYGDETPYASLHDYWGQGTQVTVSS
polyreactivity (PSR sort gate): low polyreactivity

QVQLEESGGRLVQAGGSLRLSCAASGGILRGYGMGWYRQAQGKQRELVAVISRRGGSTYYADSVKGRFTISRDNAKNTVYLQMNRLKPEVTAVYYCAADLKTGFLEYDYWGQGTQVTVSS
polyreactivity (PSR sort gate): high polyreactivity

QVQLEESGGRLVQAGGSLRLSCAASGSIIGRYTMGWYRQAPGKERELVAAISGSGGSTYYADSVKGRFTISRDNAKNSVYFQMYSLKPEDTAVYYCAAYYYGRYLMVYWGQGTQVTVAS
polyreactivity (PSR sort gate): high polyreactivity

QVQLEESGGRLVQEGGSLRLSCAASGYIFQGNAMGWYTPAPGKERELVAAITSSGGRTYYADSVKGRFTISRDNAKNTVYLQMHSLKPEDTAVYYCAAKSVRRGGGEYWGEGTQVTVSS
polyreactivity (PSR sort gate): high polyreactivity

QVQLEESGGRLVQPGGSLRLSCAASGFIFGIYDMGWYRQAPGKERELVAAITYSGSSTYYADSVKGRFTISRDNAKNTVYLQMNSLKPEDTAVYYCNKTAWDWDYWDPEYDYWGQGTQVTVSS
polyreactivity (PSR sort gate): high polyreactivity

QVQLEESGGVLVQAGGSLRLSCAASGLTLYRNAMGWYRQAPGKERELVATINFSGGSTYYADSVKGRFTISRDNAKNTVYLQMNSLKPEDTAVYYCNARGYWHYSPTKFDYWGQGTQVTVSS
polyreactivity (PSR sort gate): low polyreactivity

QVQLEESGGVLVQAGGSLRLSCAASGSIFDAYAMGWYRQAPGKDRELVADITVSAGRTYYADSVNGRFTISRDNAKNTVYLQMNSLKPEDTAVYYCAADSIVGDGYWSYYWGQGTQVTVSS
polyreactivity (PSR sort gate): low polyreactivity

QVQLEESGRGLLQAGGSLRISCAASGFIYGTNTMGWYRQAPGIARELVAAITSVGSTNYADSVKGRFTISRDNAKNTVYLQMNSLKPEDTAVYYCPATLYYQYGGDYWGQGTQVTVSS
polyreactivity (PSR sort gate): low polyreactivity

QVQLEESGVGLLQAGGSLRLSCAASGFIFCSNDMGWYRQAPGKERELVAAITRGGNTNYADSVKGRFTISRDNAKNTVYLQLNSLKPEDTAVYYCATEGYGAVQPSYEGGYWGQGTQVTVSS
polyreactivity (PSR sort gate): low polyreactivity

QVQLEESRGGIVQAGGSLRLSCAASGFTFSTYAMGWYRPAPGKELELVASISRSGNTNYADSVKGRFTISRDNAKNTVYLQMKSLKPEDTAVYSSAAELVYRRVRYDYWGQGTQVTVSS
polyreactivity (PSR sort gate): high polyreactivity

QVQLEESRGGLVQAGGSHRLSCAAYGSIFRSYAMGWYRQAPGKERDLVAAISSRSGSTYYADSVKGRFTISRDNAKNTVYLQMNSLKPEDTAVYYCAAQHRHSFGYWGQGTQVTVSS
polyreactivity (PSR sort gate): high polyreactivity

QVQLEESRGGLVQAGGSLRLSCAASGITFYTYAMGWYRQAPGKETELVAAITSRTGSTYYADSVKGRFTISRDNAKNTVYLQMNSLKPEDTAVYDCAADRTRGRDGSDYWGQGTQVTVSS
polyreactivity (PSR sort gate): low polyreactivity

QVQLEESRGGLVQAGGSLRLSCAASGYIFSYYDMGWYRQAPGKERELVASITSSGGSTYYADSVKGRFTISRDNGKNTVYLQMNSLKPEDTAVYYCNADVYDTYSPLGYYFWGQGTQVTVSS
polyreactivity (PSR sort gate): low polyreactivity

QVQLEESRGGLVQAGGSLRLSYPASGRTYVTYAMGWYRQAPGKERELVAAITSGGSTNYADSVKGRFTISRDNAKNTVYLQMNSLKPEDTAVYYCAKAYLWYKGIFDYWGQGTQVTVSS
polyreactivity (PSR sort gate): low polyreactivity

QVQLEESVGGLVQAGGSLRLSCAASGRIFAAYAMGWYRQEPGKERELVAAITGSGGRTYYADSVKGRFTISRDNAKNTVYLQMNSLKPEDTAVYYCAAESTPYSSVDRVAVYYWGQGTQVTVSS
polyreactivity (PSR sort gate): high polyreactivity

QVQLEESWGVLVQAGCSLRISCAASGRIFAYNAMGSYRQAPGKERELVAAISWRVGSTYYADSVKGRFSISRDNAKNTVYLQMNILKPEDTAVYYCAVGYYRFGRVLGYYWGQGTQVSVSS
polyreactivity (PSR sort gate): high polyreactivity

QVQLEETGGGLVQAGGSLRLSCAASGSIFHYNAMGWYRQAPGKEREFVAAITGGGGTYYADSVKGRCTISRDNAKNTVYFQMNSLKPEDTGVYYCAAQSRTSFRFNYWGQVTQVTVSS
polyreactivity (PSR sort gate): high polyreactivity

QVQLEETGGGLVQAGGSLRLTCAASVRTFRGNVMGWYREAPGKERELVAAINWTGSSTYYADSVKGRFTISRDNAKNSVYLQMNSLKPEDTAVYYCATRSGPHGGGLPRDYWGQGTQVTVSS
polyreactivity (PSR sort gate): low polyreactivity

QVQLEETGGRLVQAGARLRLSCDASGYIFFFYAMGWYRHAPGKERELDASITYRGGSTYYADSVKGRFTLSRDYAKNTVYLQINSLKPEDTAVYYCIVDGGGPLGPHGFPFDYWGQGTQVTVSS
polyreactivity (PSR sort gate): low polyreactivity

QVQLEVSGGGLVQAGRSLRLSCAASGSTFYGYAMGWYRQAPGKERELVAAITSSGGSTYYADSVKGRFTISRDNAKNTVYLQMNSLKPEDTAVYYCNAKRAPWGTLYNYWGQGTQVTVSS
polyreactivity (PSR sort gate): high polyreactivity

QVQLGDSGGGLVQAGGRLGLSCAASGSTFGRYAMGWYRPAPGKERELVAAISSSGGRTYYADSVKGRFTISRDNAKNTVYLQMNSLKPEDTAVYYCASDARFRQKYEYWGQGTQVTVSS
polyreactivity (PSR sort gate): high polyreactivity
